The data set is described as follows: label from the status in PepcDB records.
In the case of “MEERELTLSDILLMFKRRSKLFWLVLVLTVFATGIYLFLATPQYEAYARVKVSTQKGMRLGLSIEGLLGGLSSLLGGGGSQEDEIQIMLSRRNIIAVIDELDLVHKLLDEKDIEKAKKNGLTEDDLKLSLYSYMVEKLITVEPVKNSSILEVKVTWHEPKLAAEIANKIVENYTKISENIAKSQLGAKMDFLEEQIPKVEQELKEAESKLKVFKEQNRIYSVEAQTQVLIDRYASLLQKMEEARIAMEATQKQSEFFSKELKDLDIEIEQIKDSITFDPIISQLKSNMINIQIELAGLMERYTETNPAVVQKKAELQETQKQLEIELKRLLTSQVKKTGNPVYEEALSSLIKAESEKILYQSQYEAFKKLYEDMEKELSKLPELEQKLIELERDYKVKETIYTTLLQAKYESLISEAAITANANVIDWAVPPLEPSKPNKKLTLAIGGVLGIFLGILAVFFAEFSDRRIKSESEAEYLLGLEKIVARVPLTQNEEVMEKALGIPAVKSGKVTFITALEDGAGVSTLAKHMAKLLSKKEKVLLLTEEKVEGTFDRKDVFDLLKNPDVLEELKERYDKIIVDAPSLKRTPDFLPIAEKSDTVYIVIRLEHTLSEDLKTLHTLKKIDGFILNGLTKKNSTYVE”, the protein production entry was “failed”.
Regarding “MEEVIWEQYTVTLQKDSKRGFGIAVSGGRDNPHFENGETSIVISDVLPGGPADGLLQENDRVVMVNGTPMEDVLHSFAVQQLRKSGKIAAIVVKRPRKVQVAPL”, the protein production entry is “not failed”.
The value for “MEFAPRSVVIEEFIDTLEPMMEAYGLDQVGIFEEHGEGNRYYVGYTINKDDEMITIHMPFVKNERGELALEKQEWTVRKDGREKKGFHSLQEAMEEVIHS” was “not failed”; that for “MEFDKGQTLGNFIDRIRLNGYNTECVFNQSICQDIKNHYKQQCCAMCGVRGNSENTQIEVDHKDGRKDDSRVSDLSTQAFDDFQALCKACNDKKRQICKKCKETGYRFDARKIPGNHYSFYEGEAEYDGCVGCYQYDPIQYRKTCNDRIYNEGYQKGYSDGYQIGYHQKTT” was “failed”; that for “MEFEVKKTFGKARLGVMKLHHGAVETPVFMPVGTNASVKLLTPRDLEEAGAEIILSNTFHLMLKPGVEIIKLHRGLHNFMGWKRPILTDSGGFQVFSLPKIRIDDEGVVFRSPIDGSKVFLNPEISMEVQIALGSDICMVFDHCPVPDADYEEVKEATERTYRWALRSKKAFKTENQALFGIVQGGIYPDLRRESALQLTSIGFDGYAIGGLSIGEERSLTLEMTEVTVEFLPEDKPRYFMGGGSPELILELVDRGVDMFDSVFPTRIARHGTALTWNGKLNLKASYNKRSLEPVDERCGCYTCKNFTRSYIHHLFDRGEVLGQILLTIHNINFMISLMKEVRRSIESGTFKELKSKVVEVYSSGGVNV” was “not failed”.
For “MEFFAVSLDSHVFSHIKEIFLYNHNQKFYVVMMKHDDVLMILAAAALMFSFSWVHGMLLVLPLLAIPQLSSRTLKWGVLVLAVFVALLILQPMTRAVGLNISDELFRLVLLLLFTFMVALLIERIEKVRSLRELNLELKKQAEKLEDANKELEAFAYSVSHDLRVPLRAIDGFSRILVEDYEDKLDDEGVRILGIIRDNTRKMGQLIDDILLLSRAGRQEMNLAMLDMRELAESTYRELASQEEGRSIEFSVADLPPAMADRALMGQVMGNLLSNAIKFTRDRDPAVIEVGYMDGGDEHTYYVKDNGAGFDMKYASKLFGLFQRLHSQEEFEGTGVGLSIVQRIIKRHGGRVWGEGKVDGGATIYFTLPKVVK”, the protein production result is “failed”.
In the case of “MEFLAYFNSVISNNIFLAIILSFFAGVVASFSPCTLSSIPLLIGYVQGSEVKDNKKAFKYSLIFSIGLGITFTVIGLLTALIGKAFLGAGKFWYIILAFIMIGSGLQVLDVINLFGDKKEACKITKRREGILDAFFLGILSGILASPCATPIMAAIIAFIAASGNLVIGMIMLLMYSLGHSVLIILAGTSFGLVEKIAYSENGKKIGRVLKNILGTIIILVGLYLFYLGV”, the protein production entry is reported as “failed”.
For the sequence “MEFLIILLLLVLNGIFAMYEIALVSSSKARLETLAGKGNKSARGVLKQLEEPEKFLSTIQIGITLIGIVSGAYGGVAIADDLVPLFSLIPGAEAYARNLAMITTVVIITYLSLIIGELVPKSIALSNPERYATLFSPIMILLTKVSYPFVWFLSISTRLLNRIIGVKNEERPMTQEEIKMILHQSSEQGVIDKEETEMLRDVFRFSDKRANELMTHRRDLVIFHPDDTKDKVMKTIEEEHYSKYLLVDERKDEIIGVVSVKDIILMVGNKKEFNLREIARPALFIPESLYANKILELFKKNKNKFGVVVNEYGSTEGIITLHDLTESIFGDILEEDDTEEEDIVRRQDGSMLVEASMNIKDFMEEMGILSYEDLEDEDFTTLGGLAMFLLGGIPKAGDIFTYKNLQFEVVDMDRGRVDKLLVIKRDEEE”, the protein production entry is “failed”.
For “MEFMHDKSAEDEGITLVSEPMDTTVATHESRRNAAAFSSVVAPTTDDEIVHERFDPAFEVQADFYGFDENAPPLPLPEEYYSELPLPEEDRQYIPPPPALIPVEPETTFRRPRTRQQRRTESQLVQPVSVATYEDSKASLRVLMQQLPPPGDNVVARIPKRTHRVVRTLPPTFGTTKREENFYGFSKTAISWRKTRASWRHFCLLING”, the protein production entry is listed as “failed”.
On to “MEFRLLHISDLHMIPGQETKKAWVSALDSLSPDLVINTGDNLSDEKAVPDVLRALGPLMNRPGAFVFGTNDYWAPRPVNPFGYLFGKKREVSHIDLPWRAMRAAFIEHGWQDANQKRLEFQVGSVRLAISGVDDPHHDLDDYTEIAGAPNVDADLSIALLHAPEPRVLAQFEADGYQLSLSGHTHGGQLEHHHHHH”, for which the protein production result is “failed”.
With “MEFSGRKWRKLRLAGDQRNASYPHCLQFYLQPPSENISLIEFENLAIDRVKLLKSVENLGVSYVKGTEQYQSKLESELRKLKFSYRENLEDEYEPRRRDHISHFILRLAYCQSEELRRWFIQQEMDLLRFRFSILPKDKIQDFLKDSQLQFEAISDEEKTLREQEIVASSPSLSGLKLGFESIYKIPFADALDLFRGRKVYLEDGFAYVPLKDIVAIILNEFRAKLSKALALTARSLPAVQSDERLQPLLNHLSHSYTGQDYSTQGNVGKISLDQIDLLSTKSFPPCMRQLHKALRENHHLRHGGRMQYGLFLKGIGLTLEQALQFWKQEFIKGKMDPDKFDKGYSYNIRHSFGKEGKRTDYTPFSCLKIILSNPPSQGDYHGCPFRHSDPELLKQKLQSYKISPGGISQILDLVKGTHYQVACQKYFEMIHNVDDCGFSLNHPNQFFCESQRILNGGKDIKKEPIQPETPQPKPSVQKTKDASSALASLNSSLEMDMEGLEDYFSEDS” the entry was “failed”.
As to “MEFTTGLMSLDTALNEMLSRVTPLTAQETLPLVQCFGRILASDVVSPLDVPGFDNSAMDGYAVRLADIASGQPLPVAGKSFAGQPYHGEWPAGTCIRIMTGAPVPEGCEAVVMQEQTEQMDNGVRFTAEVRSGQNIRRRGEDISAGAVVFPAGTRLTTAELPVIASLGIAEVPVIRKVRVALFSTGDELQLPGQPLGDGQIYDTNRLAVHLMLEQLGCEVINLGIIRDDPHALRAAFIEADSQADVVISSGGVSVGEADYTKTILEELGEIAFWKLAIKPGKPFAFGKLSNSWFCGLPGNPVSATLTFYQLVQPLLAKLSGNTASGLPARQRVRTASRLKKTPGRLDFQRGVLQRNADGELEVTTTGHQGSHIFSSFSLGNCFIVLERDRGNVEVGEWVEVEPFNALFGGL”, the protein production result is “not failed”.
With “MEFYEVIKKRKSIKKFEQTAIDRDKLLKIIDMAMRAPSWKNKTPYKFIVVESDKLKLDIANAIENKTSAASEAVLNSPMTIVAVANPEESGDVSGKEIYLIDTAIAMEHIVLGATDEGYGTCWIAAFNENKIKEALKIPDNLRVVALTPLGVPKDSAEDEPHHPKKDMDEYLYIDKWGTSFMESNVKILEKN”, the protein production entry is given as “not failed”.
On to “MEGFGMPKLIISGRGGSGKSTLVTLIAHTLKEQKKRVLVVDSDESNIGLSGILGIEPAEKTLMDYLGGKPRVMKKLRSMIRDGETEPELFREKFDLESLSQEFVCWVGSLGLMQIGKIDHAMEGCACPMGAVTRDFLNHVRLEEDQWVLVDTEAGVEHFGRGIVEGADAVVMVVDPSSDAVLLAEKAAKLTHEADKRFGVILNKIDEETEPILTELLTSEGNEIKGVLPYSPAITKMNLKGESLGAYAVKNEVDEIIRELMKCLEHHHHHH”, for which the protein production result is reported as “failed”.
Take “MEGIDMLDIKLIRENPELVKNDLIKRGELEKVKWVDEILKLDTEWRTKLKEINRLRHERNKIAVEIGKRRKKGEPVDELLAKSREIVKRIGELENEVEELKKKIDYYLWRLPNITHPSVPVGKDENDNVPIRFWGKARVWKGHLERFLEQSQGKMEYEILEWKPKLHVDLLEILGGADFARAAKVSGSRFYYLLNEIVILDLALIRFALDRLIEKGFTPVIPPYMVRRFVEEGSTSFEDFEDVIYKVEDEDLYLIPTAEHPLAGMHANEILDGKDLPLLYVGVSPCFRKEAGTAGKDTKGIFRVHQFHKVEQFVYSRPEESWEWHEKIIRNAEELFQELEIPYRVVNICTGDLGYVAAKKYDIEAWMPGQGKFREVVSASNCTDWQARRLNIRFRDRTDEKPRYVHTLNSTAIATSRAIVAILENHQEEDGTVRIPKVLWKYTGFKEIVPVEKKERCCAT”: the protein production result is listed as “not failed”.
As for “MEGLLIDYVQPGSIAEELEIEAGDRLVAINGQDLRDIIDFSFYAHDEELALEIVKPSGDHWEAEIERDGDEPLGLVFAPPVPAQCGNKCVFCFVHQLPKGLRRPLYVKDEDYRLSFLYGNYVTLSNIRRGDLDRIVAQRLSPLYISVHATNPALRERLLGRSEILPILDLMRELAAARIVMHSQIVLCPGLNDGVELEKTVRDLAGLHPWVESLAIVPIGLTKHRRGLPALEPVTASYAETFVQNWQPAAERLERELGAPFLFIADEFYIKAGLPFPPLETYGDLPQIENGVGMIPLFLDESERVLKKARKGKPVTVTVVTGESPYRYLAAFLERLSVRTGATFKPVAVHNRLFGESVTVTGLVAGSDIVEELSGRDLGDAVLVPDVMLKEGEGIFLDDLSVDGLGKSLGTRVLVVEATPQGVVDALRRVRSMLEHHHHHH”, the protein production entry is “failed”.
In the case of “MEGMKGAVLITGASRGIGEATARLLHAKGYRVGLMARDEKRLQALAAELEGALPLPGDVREEGDWARAVAAMEEAFGELSALVNNAGVGVMKPVHELTLEEWRLVLDTNLTGAFLGIRHAVPALLRRGGGTIVNVGSLAGKNPFKGGAAYNASKFGLLGLAGAAMLDLREANVRVVNVLPGSVDTGFAGNTPGQAWKLKPEDVAQAVLFALEMPGHAMVSEIELRPTRPTSGPR”, the protein production entry is listed as “not failed”.
For the sequence “MEGPLNLAHQQSRRADRLLAAGKYEEAISCHRKATTYLSEAMKLTESEQAHLSLELQRDSHMKQLLLIQERWKRAKREERLKAH”, the protein production result was “not failed”.
With “MEGQTHDAQNNVPEHDNPLMNVKNPSSNLFSKKDAQCLSVLCNGKWLQIVRSSPKVSCEASTCPSHILTKVGENYVAESEKMHKKVISFSSKTFSQGTLQFTMRANGTPHFVFKLENQKDVYVASLSSNVQDQNSYMIHLQRGESSASSSHLVGRINVSTLFSEKVLEREFVLFSSNGENLKIPRTRKNRGLSKKVVHAVKNERRTARLSRTSFIPDLGSWDEQFQAQNYDCLLKNKLPTNLETLAVVVKQETIEDEIGGWGLKFLKRSPMFQRSNDASETETSTSSISMNVVIPSGIHGGPEDGPSSLIERWKSQGNCDCGGWDLCCSLTLLKGQPRKDQYFELFIEVKLSFISSNTSIL” the entry was “failed”; with “MEGVELELERRSKFLNSLIQKKKAKEQQDQKDEFNVRVRASDMPLPQQNRAFSLSREILNATPGKADNKRLAHALKKDFDSAYGPAWHCIVGTSFGSYVTHSTGGFLYFQIDKVYVLLFKTAVEPLDQK”, “failed”.

(Values after a protein production outcome set (Wang et al. 2014).)
